According to patent US8597645:

B1: Caspase-8 (endogenous, in melanocytes and melanoma cells) (protein)
chain: MDFSRNLYDIGEQLDSEDLASLKFLSLDYIPQRKQEPIKDALMLFQRLQEKRMLEESNLSFLKELLFRINRLDLLITYLNTRKEEMERELQTPGRAQISAYRVMLYQISEEVSRSELRSFKFLLQEEISKCKLDDDMNLLDIFIEMEKRVILGEGKLDILKRVCAQINKSLLKIINDYEEFSKERSSSLEGSPDEFSNGEELCGVMTISDSPREQDSESQTLDKVYQMKSKPRGYCLIINNHNFAKAREKVPKLHSIRDRNGTHLDAGALTTTFEELHFEIKPHDDCTVEQIYEILKIYQLMDHSNMDCFICCILSHGDKGIIYGTDGQEAPIYELTSQFTGLKCPSLAGKPKVFFIQACQGDNYQKGIPVETDSEEQPYLEMDLSSPQTRYIPDEADFLLGMATVNNCVSYRNPAEGTWYIQSLCQSLRERCPRGDDILTILTEVNYEVSNKDDKKNMGKQMPQPTFTLRKKLVFPSD
B2: Recombinant caspase-8 (protein)
chain: SESQTLDKVYQMKSKPRGYCLIINNHNFAKAREKVPKLHSIRDRNGTHLDAGALTTTFEELHFEIKPHDDCTVEQIYEILKIYQLMDHSNMDCFICCILSHGDKGIIYGTDGQEAPIYELTSQFTGLKCPSLAGKPKVFFIQACQGDNYQKGIPVETDSEEQPYLEMDLSSPQTRYIPDEADFLLGMATVNNCVSYRNPAEGTWYIQSLCQSLRERCPRGDDILTILTEVNYEVSNKDDKKNMGKQMPQPTFTLRKKLVFPSD

Experiments:
[1] = target: T1, Cell permeable caspase inhibitor containing the sequence IETD, P08620
T1 chain: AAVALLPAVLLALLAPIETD

[2] = target: T2, β-catenin (immunoprecipitated), P35222
T2 chain: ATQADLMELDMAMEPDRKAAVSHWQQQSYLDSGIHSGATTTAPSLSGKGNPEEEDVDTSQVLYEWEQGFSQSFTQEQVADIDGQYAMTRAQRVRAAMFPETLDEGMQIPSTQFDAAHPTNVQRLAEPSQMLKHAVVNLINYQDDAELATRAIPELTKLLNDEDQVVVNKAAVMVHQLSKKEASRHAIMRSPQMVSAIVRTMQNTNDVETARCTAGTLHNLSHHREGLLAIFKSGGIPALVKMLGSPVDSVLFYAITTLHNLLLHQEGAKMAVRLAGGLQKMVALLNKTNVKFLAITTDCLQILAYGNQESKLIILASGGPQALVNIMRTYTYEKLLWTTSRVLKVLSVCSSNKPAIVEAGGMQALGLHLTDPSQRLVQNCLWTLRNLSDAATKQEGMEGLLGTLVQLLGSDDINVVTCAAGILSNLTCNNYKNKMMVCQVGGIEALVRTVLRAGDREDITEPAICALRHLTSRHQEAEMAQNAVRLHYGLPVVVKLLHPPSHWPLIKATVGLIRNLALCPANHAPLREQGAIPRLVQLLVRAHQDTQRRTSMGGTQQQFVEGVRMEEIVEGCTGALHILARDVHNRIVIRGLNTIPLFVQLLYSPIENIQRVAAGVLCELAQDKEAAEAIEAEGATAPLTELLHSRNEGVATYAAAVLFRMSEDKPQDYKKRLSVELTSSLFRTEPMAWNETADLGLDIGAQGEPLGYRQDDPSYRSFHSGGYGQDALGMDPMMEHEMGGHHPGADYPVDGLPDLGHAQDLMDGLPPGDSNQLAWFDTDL

[3] = target: T3, p120^CTN (immunoprecipitated), O60716
T3 chain: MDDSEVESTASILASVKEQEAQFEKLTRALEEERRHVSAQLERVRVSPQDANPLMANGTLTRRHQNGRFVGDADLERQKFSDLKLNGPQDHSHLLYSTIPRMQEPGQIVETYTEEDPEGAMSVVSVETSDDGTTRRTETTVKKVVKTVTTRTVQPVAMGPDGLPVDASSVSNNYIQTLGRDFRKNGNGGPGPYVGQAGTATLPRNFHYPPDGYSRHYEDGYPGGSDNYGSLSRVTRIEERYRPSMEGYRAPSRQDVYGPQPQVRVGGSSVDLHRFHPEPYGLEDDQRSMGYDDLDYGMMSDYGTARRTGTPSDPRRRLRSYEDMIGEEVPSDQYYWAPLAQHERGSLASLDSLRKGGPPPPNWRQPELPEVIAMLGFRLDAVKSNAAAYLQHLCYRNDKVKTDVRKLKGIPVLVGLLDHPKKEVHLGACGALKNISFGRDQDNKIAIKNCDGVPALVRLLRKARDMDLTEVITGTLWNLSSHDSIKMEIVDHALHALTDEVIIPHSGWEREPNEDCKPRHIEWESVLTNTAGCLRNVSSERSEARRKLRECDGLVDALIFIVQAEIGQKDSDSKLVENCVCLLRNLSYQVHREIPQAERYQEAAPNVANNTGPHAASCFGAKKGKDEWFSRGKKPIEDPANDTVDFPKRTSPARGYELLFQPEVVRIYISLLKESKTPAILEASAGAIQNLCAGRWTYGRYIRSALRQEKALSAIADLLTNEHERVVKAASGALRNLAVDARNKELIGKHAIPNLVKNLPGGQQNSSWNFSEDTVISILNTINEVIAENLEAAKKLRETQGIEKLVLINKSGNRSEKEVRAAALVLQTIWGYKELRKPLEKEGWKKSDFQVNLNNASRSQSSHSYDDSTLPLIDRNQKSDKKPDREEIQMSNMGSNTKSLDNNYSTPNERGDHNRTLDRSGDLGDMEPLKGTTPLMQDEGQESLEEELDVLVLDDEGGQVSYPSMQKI

Protein | Proteolytic processing of caspase-8 (immunoblot) [1] | In vitro cleavage of the immunoprecipitated protein [2] | In vitro cleavage of the immunoprecipitated protein [3]
B1 | Treatment of cells with a cell permeable inhibitor of caspase-8 prevented its proteolytic processing |  | 
B2 |  | Cleavage of immunoprecipitated β-catenin and p120^CTN by recombinant caspase-8 in vitro also was not demonstrated | Cleavage of immunoprecipitated β-catenin and p120^CTN by recombinant caspase-8 in vitro also was not demonstrated
